Laboratory results as given in patent US20180148504A1.

Columns and labels:
[1] = biological target: recombinant purified FRα (ECL assay calibrator) (human) (UniProt P15328); assay: ECL sandwich competition; competitors 9F3 capture / 24F12 detection; FRα standard STD02; MORAb-003 10 µg/mL
[2] = biological target: recombinant purified FRα (ECL assay calibrator) (human) (UniProt P15328); assay: ECL sandwich competition; competitors 9F3 capture / 24F12 detection; FRα standard STD02; MORAb-003 50 µg/mL
[3] = biological target: recombinant purified FRα (ECL assay calibrator) (human) (UniProt P15328); assay: ECL sandwich competition; competitors 9F3 capture / 24F12 detection; FRα standard STD03; MORAb-003 50 µg/mL
[4] = biological target: recombinant purified FRα (ECL assay calibrator) (human) (UniProt P15328); assay: ECL sandwich competition; competitors 9F3 capture / 24F12 detection; FRα standard STD04; MORAb-003 50 µg/mL
[5] = biological target: recombinant purified FRα (ECL assay calibrator) (human) (UniProt P15328); assay: ECL sandwich competition; competitors 9F3 capture / 24F12 detection; FRα standard STD07; MORAb-003 10 µg/mL
[6] = biological target: recombinant purified FRα (ECL assay calibrator) (human) (UniProt P15328); assay: ECL sandwich competition; competitors 9F3 capture / 24F12 detection; FRα standard STD07; MORAb-003 50 µg/mL
[7] = biological target: recombinant purified FRα (ECL assay calibrator) (human) (UniProt P15328); assay: ECL sandwich competition; competitors 9F3 capture / 24F12 detection; FRα standard STD08; MORAb-003 10 µg/mL
[8] = biological target: endogenous folate receptor alpha in human serum and plasma samples (human) (UniProt P15328); assay: ECL sandwich capture 6A2.G7 / detection 1C6.E12.G8; serum incubated overnight with 10 µg/mL MORAb-003
[9] = biological target: recombinant purified FRα (ECL assay calibrator) (human) (UniProt P15328); assay: ECL sandwich capture 6A2.G7 / detection 19D2.G9; calibrator incubated overnight with 10 µg/mL MORAb-003
[10] = biological target: recombinant purified FRα (ECL assay calibrator) (human) (UniProt P15328); assay: ECL sandwich capture 6A2.G7 / detection 24H8.F3; calibrator incubated overnight with 10 µg/mL MORAb-003
[11] = biological target: recombinant purified FRα (ECL assay calibrator) (human) (UniProt P15328); assay: ECL sandwich capture 6A2.G7 / detection 2F11.F8; calibrator incubated overnight with 10 µg/mL MORAb-003
[12] = biological target: endogenous folate receptor alpha in human serum and plasma samples (human) (UniProt P15328); assay: ECL sandwich capture 19D4.B7 / detection 1C6.E12.G8; serum incubated overnight with 10 µg/mL MORAb-003
[13] = biological target: endogenous folate receptor alpha in human serum and plasma samples (human) (UniProt P15328); assay: ECL sandwich capture 1A8.G11.E7 / detection 19D4.B7; serum incubated overnight with 10 µg/mL MORAb-003
[14] = biological target: recombinant purified FRα (ECL assay calibrator) (human) (UniProt P15328); assay: ECL sandwich capture 6A2.G7 / detection 1D2.G8.G10; calibrator incubated overnight with 10 µg/mL MORAb-003
[15] = biological target: recombinant purified FRα (ECL assay calibrator) (human) (UniProt P15328); assay: ECL sandwich capture 19D2.G9 / detection 30G6.G6.G4.E9; calibrator incubated overnight with 10 µg/mL MORAb-003
[16] = biological target: recombinant purified FRα (ECL assay calibrator) (human) (UniProt P15328); assay: ECL sandwich capture 24H8.D3 / detection 30G6.G6.G4.E9; calibrator incubated overnight with 10 µg/mL MORAb-003
[17] = biological target: recombinant purified FRα (ECL assay calibrator) (human) (UniProt P15328); assay: ECL sandwich capture 30G6.G6.G4.E9 / detection 2F11.F8; calibrator incubated overnight with 10 µg/mL MORAb-003
[18] = biological target: recombinant purified FRα (ECL assay calibrator) (human) (UniProt P15328); assay: ECL sandwich capture 30G6.G6.G4.E9 / detection 5C12.H8; calibrator incubated overnight with 10 µg/mL MORAb-003
[19] = biological target: recombinant purified FRα (ECL assay calibrator) (human) (UniProt P15328); assay: ECL sandwich capture 30G6.G6.G4.E9 / detection 28H12.G9; calibrator incubated overnight with 10 µg/mL MORAb-003
[20] = biological target: recombinant purified FRα (ECL assay calibrator) (human) (UniProt P15328); assay: ECL sandwich capture 30G6.G6.G4.E9 / detection 1C6.E12.G8; calibrator incubated overnight with 10 µg/mL MORAb-003
[21] = biological target: recombinant purified FRα (ECL assay calibrator) (human) (UniProt P15328); assay: ECL sandwich capture 30G6.G6.G4.E9 / detection 1A8.G11.E7; calibrator incubated overnight with 10 µg/mL MORAb-003
[22] = biological target: recombinant purified FRα (ECL assay calibrator) (human) (UniProt P15328); assay: ECL sandwich, positive control +CONT: capture 26B3.F2 (f1) / detection 19D4.B7; calibrator incubated overnight with 10 µg/mL MORAb-003

Sequence of endogenous folate receptor alpha in human serum and plasma samples (human) (P15328 25-234 limits assumed, form in doubt): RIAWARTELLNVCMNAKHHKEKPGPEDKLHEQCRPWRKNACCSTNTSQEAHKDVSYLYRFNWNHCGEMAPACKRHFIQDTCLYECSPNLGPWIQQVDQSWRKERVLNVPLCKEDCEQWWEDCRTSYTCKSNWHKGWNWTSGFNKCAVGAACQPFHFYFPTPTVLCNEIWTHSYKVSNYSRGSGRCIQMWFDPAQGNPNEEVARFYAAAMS
Sequence of recombinant purified FRα (ECL assay calibrator) (human) (P15328 25-234 limits assumed): as the sequence (P15328 25-234 limits assumed, form in doubt) above

B1: farletuzumab (MORAb-003) (antibody, part only; not given: Constant regions, V domains shown, not shown: another chain or arm of the molecule)
VH: EVQLVESGGGVVQPGRSLRLSCSASGFTFSGYGLSWVRQAPGKGLEWVAMISSGGSYTYYADSVKGRFAISRDNAKNTLFLQMDSLRPEDTGVYFCARHGDDPAWFAYWGQGTPVTVSS
VL: DIQLTQSPSSLSASVGDRVTITCSVSSSISSNNLHWYQQKPGKAPKPWIYGTSNLASGVPSRFSGSGSGTDYTFTISSLQPEDIATYYCQQWSSYPYMYTFGQGTKVEIK
- % of signal without MORAb-003 (MORAb-003 interference) [1]: 70%
- % of signal without MORAb-003 (MORAb-003 interference) [2]: 49%
- % of signal without MORAb-003 (MORAb-003 interference) [3]: 58%
- % of signal without MORAb-003 (MORAb-003 interference) [4]: 57%
- % of signal without MORAb-003 (MORAb-003 interference) [5]: 87%
- % of signal without MORAb-003 (MORAb-003 interference) [6]: 88%
- % of signal without MORAb-003 (MORAb-003 interference) [7]: 121%
- Drug suppression of serum [8]: -22.2%
- Drug Suppression of Cal Signal at 500 pg/mL [9]: -7%
- Drug Suppression of Cal Signal at 500 pg/mL [10]: -5%
- Drug Suppression of Cal Signal at 500 pg/mL [11]: -4%
- Drug suppression of serum [12]: -6.01%
- Drug suppression of serum [13]: -4.78%
- Drug Suppression of Cal Signal at 500 pg/mL [14]: -7%
- Drug Suppression of Cal Signal at 500 pg/mL [15]: -4%
- Drug Suppression of Cal Signal at 500 pg/mL [16]: 0%
- Drug Suppression of Cal Signal at 500 pg/mL [17]: -1%
- Drug Suppression of Cal Signal at 500 pg/mL [18]: -7%
- Drug Suppression of Cal Signal at 500 pg/mL [19]: -15%
- Drug Suppression of Cal Signal at 500 pg/mL [20]: -7%
- Drug Suppression of Cal Signal at 500 pg/mL [21]: 2%
- Drug Suppression of Cal Signal at 500 pg/mL [22]: -5%
